Assay [1] deals with F-DicerΔ3 mutant lacking the DUF283 domain (human). Kind of assay: co-IP.
The target of assay [2] is F-DicerΔN1 lacking a part of the DEAD-box RNA helicase domain (human). The assay is described as follows: co-IP.
Assay [3] addresses T1, full-length FLAG-tagged Dicer (F-Dicer), baculovirus/Sf9 (human, UniProt Q9UPY3 1-1922). The assay is described as follows: SEC. Background: Size exclusion chromatography separates by hydrodynamic size, large species first.
Assay [4] has as its target T1, full-length FLAG-tagged Dicer …. The assay is described as follows: pull-down + co-IP.

Results on one molecule are retold here after PMC3651894 (Cell, 2013).

T1 sequence (Q9UPY3 whole entry): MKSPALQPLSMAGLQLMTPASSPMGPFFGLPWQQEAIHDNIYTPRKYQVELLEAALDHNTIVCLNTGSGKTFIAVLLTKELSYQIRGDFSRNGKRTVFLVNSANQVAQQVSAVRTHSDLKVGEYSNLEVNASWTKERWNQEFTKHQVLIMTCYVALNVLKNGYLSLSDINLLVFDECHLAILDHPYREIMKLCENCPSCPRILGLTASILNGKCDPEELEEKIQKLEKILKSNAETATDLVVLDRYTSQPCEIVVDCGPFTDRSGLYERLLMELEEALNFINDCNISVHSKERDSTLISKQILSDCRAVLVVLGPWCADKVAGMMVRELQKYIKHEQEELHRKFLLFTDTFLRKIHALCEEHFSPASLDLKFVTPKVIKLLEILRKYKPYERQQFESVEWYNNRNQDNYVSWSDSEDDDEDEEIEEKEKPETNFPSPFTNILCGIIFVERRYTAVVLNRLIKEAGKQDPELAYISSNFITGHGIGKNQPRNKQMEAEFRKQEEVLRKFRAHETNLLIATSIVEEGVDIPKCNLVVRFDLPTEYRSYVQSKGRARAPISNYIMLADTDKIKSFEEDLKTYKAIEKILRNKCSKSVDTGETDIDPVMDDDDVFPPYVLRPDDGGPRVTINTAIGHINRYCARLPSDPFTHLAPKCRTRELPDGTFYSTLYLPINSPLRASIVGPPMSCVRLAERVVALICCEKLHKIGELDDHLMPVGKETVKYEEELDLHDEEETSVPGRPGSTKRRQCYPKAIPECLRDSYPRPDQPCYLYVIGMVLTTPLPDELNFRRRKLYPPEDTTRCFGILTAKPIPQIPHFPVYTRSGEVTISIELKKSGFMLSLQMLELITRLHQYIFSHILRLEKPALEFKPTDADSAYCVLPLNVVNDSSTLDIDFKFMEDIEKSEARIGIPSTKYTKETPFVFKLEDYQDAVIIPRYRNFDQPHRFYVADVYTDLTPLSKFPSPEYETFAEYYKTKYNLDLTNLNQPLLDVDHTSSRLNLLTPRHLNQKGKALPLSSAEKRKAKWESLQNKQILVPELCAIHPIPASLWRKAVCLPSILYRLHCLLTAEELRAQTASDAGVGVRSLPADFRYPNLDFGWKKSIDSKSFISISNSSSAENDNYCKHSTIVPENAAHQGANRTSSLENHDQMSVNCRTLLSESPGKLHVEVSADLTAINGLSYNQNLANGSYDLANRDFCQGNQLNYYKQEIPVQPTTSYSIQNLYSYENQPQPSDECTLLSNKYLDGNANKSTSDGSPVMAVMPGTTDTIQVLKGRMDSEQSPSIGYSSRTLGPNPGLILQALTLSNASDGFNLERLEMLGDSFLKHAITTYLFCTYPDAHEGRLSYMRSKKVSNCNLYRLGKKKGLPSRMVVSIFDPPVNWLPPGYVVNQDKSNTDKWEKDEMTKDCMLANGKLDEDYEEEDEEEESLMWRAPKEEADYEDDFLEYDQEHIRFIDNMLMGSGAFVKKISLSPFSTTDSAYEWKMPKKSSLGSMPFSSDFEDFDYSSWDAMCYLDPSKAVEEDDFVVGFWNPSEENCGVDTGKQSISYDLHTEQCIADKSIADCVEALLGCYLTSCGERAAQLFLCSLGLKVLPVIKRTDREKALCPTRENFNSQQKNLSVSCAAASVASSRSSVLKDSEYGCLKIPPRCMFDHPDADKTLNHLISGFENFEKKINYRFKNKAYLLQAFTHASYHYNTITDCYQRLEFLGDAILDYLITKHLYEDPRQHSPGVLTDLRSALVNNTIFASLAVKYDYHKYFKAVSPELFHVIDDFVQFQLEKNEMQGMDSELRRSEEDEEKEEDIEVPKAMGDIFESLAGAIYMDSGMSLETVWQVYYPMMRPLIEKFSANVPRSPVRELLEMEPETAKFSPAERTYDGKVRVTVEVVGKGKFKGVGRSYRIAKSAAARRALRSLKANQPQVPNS
F-DicerΔ3 mutant lacking the DUF283 domain (human), sequence (Q9UPY3 whole entry, stated change not applied, the tested form may be a part): as the sequence (Q9UPY3 whole entry) above
F-DicerΔN1 lacking a part of the DEAD-box RNA helicase domain (human), sequence (Q9UPY3 whole entry, stated change not applied, the tested form may be a part): as the sequence (Q9UPY3 whole entry) above

B1: full-length HAT (histidine affinity tag)-tagged ADAR1p110 (H-ADAR1p110), baculovirus/Sf9 (natural protein, human, UniProt P55265-5 1-931, looked up)
chain: MAEIKEKICDYLFNVSDSSALNLAKNIGLTKARDINAVLIDMERQGDVYRQGTTPPIWHLTDKKRERMQIKRNTNSVPETAPAAIPETKRNAEFLTCNIPTSNASNNMVTTEKVENGQEPVIKLENRQEARPEPARLKPPVHYNGPSKAGYVDFENGQWATDDIPDDLNSIRAAPGEFRAIMEMPSFYSHGLPRCSPYKKLTECQLKNPISGLLEYAQFASQTCEFNMIEQSGPPHEPRFKFQVVINGREFPPAEAGSKKVAKQDAAMKAMTILLEEAKAKDSGKSEESSHYSTEKESEKTAESQTPTPSATSFFSGKSPVTTLLECMHKLGNSCEFRLLSKEGPAHEPKFQYCVAVGAQTFPSVSAPSKKVAKQMAAEEAMKALHGEATNSMASDNQPEGMISESLDNLESMMPNKVRKIGELVRYLNTNPVGGLLEYARSHGFAAEFKLVDQSGPPHEPKFVYQAKVGGRWFPAVCAHSKKQGKQEAADAALRVLIGENEKAERMGFTEVTPVTGASLRRTMLLLSRSPEAQPKTLPLTGSTFHDQIAMLSHRCFNTLTNSFQPSLLGRKILAAIIMKKDSEDMGVVVSLGTGNRCVKGDSLSLKGETVNDCHAEIISRRGFIRFLYSELMKYNSQTAKDSIFEPAKGGEKLQIKKTVSFHLYISTAPCGDGALFDKSCSDRAMESTESRHYPVFENPKQGKLRTKVENGEGTIPVESSDIVPTWDGIRLGERLRTMSCSDKILRWNVLGLQGALLTHFLQPIYLKSVTLGYLFSQGHLTRAICCRVTRDGSAFEDGLRHPFIVNHPKVGRVSIYDSKRQSGKTKETSVNWCLADGYDLEILDGTRGTVDGPRNELSRVSKKNIFLLFKKLCSFRYRRDLLRLSYGEAKKAARDYETAKNYFKKGLKDMGYGNWISKPQEEKNFYLCPV
Take B1: the fold reduction of interaction against full-length F-Dicer in assay [1] and in assay [2] was under 4 fold each time. The stoichiometry N (usually a count of units in the complex or per binding partner) was 1 ADAR1 per Dicer in assay [3] and about 1 ADAR1 per Dicer in assay [4].
